Key:
[1] = biological target: T1, FOXP3-ΔN (human, UniProt Q9BZS1 182-431); assay: EMSA; 12 mM HEPES pH 7.5, 100 mM NaCl, 1 mM DTT, 1 mM EDTA, 12% glycerol, 20 µg/ml poly(dI)-poly(dC), room temperature 20 min; conditions: protein: ivt; chain copies: 2; label: 32P 5' end; blunt
[2] = biological target: T1, FOXP3-ΔN; assay: as above; conditions: protein: ivt; chain copies: 2; label: 32P 5' end; blunt; remark: listed apart in the source
[3] = biological target: FOXP3 full length (human, UniProt Q9BZS1 1-431); assay: as above; conditions: protein: ivt; chain copies: 2; label: 32P 5' end; blunt
FOXP3 full length, sequence (Q9BZS1 whole entry): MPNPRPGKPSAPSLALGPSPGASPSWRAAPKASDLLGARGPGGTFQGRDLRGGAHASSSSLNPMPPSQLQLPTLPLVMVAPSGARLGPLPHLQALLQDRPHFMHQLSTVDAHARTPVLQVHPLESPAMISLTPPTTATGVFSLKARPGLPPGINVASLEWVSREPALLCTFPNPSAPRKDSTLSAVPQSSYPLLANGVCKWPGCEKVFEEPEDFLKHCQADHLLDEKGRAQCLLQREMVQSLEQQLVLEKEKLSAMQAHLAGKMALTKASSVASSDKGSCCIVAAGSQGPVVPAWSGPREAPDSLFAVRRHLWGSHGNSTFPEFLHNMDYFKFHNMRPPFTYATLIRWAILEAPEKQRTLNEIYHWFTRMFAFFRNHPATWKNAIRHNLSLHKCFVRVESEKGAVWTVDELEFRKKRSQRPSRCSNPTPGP

[4] = biological target: Foxp1A full length (mouse, UniProt P58462 1-705); assay: as above; conditions: protein: ivt; tags: HA; chain copies: 2; label: 32P 5' end; blunt
Foxp1A full length, sequence (P58462 whole entry, the tested form may be a part): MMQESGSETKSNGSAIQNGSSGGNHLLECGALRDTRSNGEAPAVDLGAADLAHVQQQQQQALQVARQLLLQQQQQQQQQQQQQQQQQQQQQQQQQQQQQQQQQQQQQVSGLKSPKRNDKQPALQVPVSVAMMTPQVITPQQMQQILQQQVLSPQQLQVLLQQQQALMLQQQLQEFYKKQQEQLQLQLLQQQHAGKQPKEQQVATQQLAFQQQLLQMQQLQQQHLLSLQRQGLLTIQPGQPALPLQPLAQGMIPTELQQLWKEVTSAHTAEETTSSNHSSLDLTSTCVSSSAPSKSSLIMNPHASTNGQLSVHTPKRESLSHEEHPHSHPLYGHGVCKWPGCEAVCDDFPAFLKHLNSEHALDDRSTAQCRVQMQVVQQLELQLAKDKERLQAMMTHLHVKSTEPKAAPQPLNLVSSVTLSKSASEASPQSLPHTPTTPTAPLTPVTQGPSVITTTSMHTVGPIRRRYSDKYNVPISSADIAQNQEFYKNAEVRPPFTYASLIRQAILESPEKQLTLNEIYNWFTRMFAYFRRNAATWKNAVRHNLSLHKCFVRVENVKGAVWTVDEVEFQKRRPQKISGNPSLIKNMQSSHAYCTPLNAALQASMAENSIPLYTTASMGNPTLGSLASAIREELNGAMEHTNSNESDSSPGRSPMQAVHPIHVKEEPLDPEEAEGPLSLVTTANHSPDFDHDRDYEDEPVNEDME

[5] = biological target: T2, FOXP3 FKH domain (UniProt Q9BZS1 337-423); assay: as above; conditions: chain copies: 2; label: 32P 5' end; blunt
T2 sequence: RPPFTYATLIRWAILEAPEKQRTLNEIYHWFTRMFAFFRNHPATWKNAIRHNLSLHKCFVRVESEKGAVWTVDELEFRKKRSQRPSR

[6] = biological target: T1, FOXP3-ΔN; assay: as above; conditions: protein: ivt; chain copies: 2; label: 32P 5' end; blunt; remark: listed apart in the source
[7] = biological target: T1, FOXP3-ΔN; assay: EMSA; binding more than doubled; 12 mM HEPES pH 7.5, 100 mM NaCl, 1 mM DTT, 1 mM EDTA, 12% glycerol, 20 µg/ml poly(dI)-poly(dC), room temperature 20 min; conditions: protein: ivt; chain copies: 2; label: 32P 5' end; blunt
[8] = biological target: FOXP3-ΔN C204S (human, UniProt Q9BZS1 182-431, C204S); assay: EMSA; not influenced by mutation; 12 mM HEPES pH 7.5, 100 mM NaCl, 1 mM DTT, 1 mM EDTA, 12% glycerol, 20 µg/ml poly(dI)-poly(dC), room temperature 20 min; conditions: protein: ivt; chain copies: 2; label: 32P 5' end; blunt
FOXP3-ΔN C204S, sequence (Q9BZS1 182-431 C204S): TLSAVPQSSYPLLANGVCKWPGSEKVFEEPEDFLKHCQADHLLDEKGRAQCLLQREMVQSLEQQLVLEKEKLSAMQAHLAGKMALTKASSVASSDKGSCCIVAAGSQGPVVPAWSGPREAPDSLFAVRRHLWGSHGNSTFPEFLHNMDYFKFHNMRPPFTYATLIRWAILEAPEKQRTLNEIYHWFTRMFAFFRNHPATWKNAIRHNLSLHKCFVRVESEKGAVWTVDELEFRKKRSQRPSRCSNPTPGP

[9] = biological target: FOXP3-ΔN delK250 (human, UniProt Q9BZS1 182-431, del250-250); assay: EMSA; 12 mM HEPES pH 7.5, 100 mM NaCl, 1 mM DTT, 1 mM EDTA, 12% glycerol, 20 µg/ml poly(dI)-poly(dC), room temperature 20 min; conditions: protein: ivt; chain copies: 2; label: 32P 5' end; blunt
FOXP3-ΔN delK250, sequence (Q9BZS1 other isoform, or with tags, fused parts or gaps del250-250 | mutant): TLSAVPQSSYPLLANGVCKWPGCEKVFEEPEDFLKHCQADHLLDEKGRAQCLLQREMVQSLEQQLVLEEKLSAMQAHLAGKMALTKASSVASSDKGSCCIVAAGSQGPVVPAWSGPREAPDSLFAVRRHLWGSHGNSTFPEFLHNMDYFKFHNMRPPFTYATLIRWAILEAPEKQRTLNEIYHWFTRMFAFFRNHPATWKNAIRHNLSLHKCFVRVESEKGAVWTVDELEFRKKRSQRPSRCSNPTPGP

[10] = biological target: FOXP3-ΔN delE251 (human, UniProt Q9BZS1 182-431, del251-251); assay: as above; conditions: protein: ivt; chain copies: 2; label: 32P 5' end; blunt
FOXP3-ΔN delE251, sequence (Q9BZS1 other isoform, or with tags, fused parts or gaps del251-251 | mutant): as the sequence (Q9BZS1 other isoform, or with tags, fused parts or gaps del250-250 | mutant) above, with E69K counted along it

[11] = biological target: FOXP3-ΔN ΔFKH (human, UniProt Q9BZS1 182-336); assay: as above; conditions: protein: ivt; label: 32P 5' end; blunt
FOXP3-ΔN ΔFKH, sequence (Q9BZS1 182-336, stated change not applied): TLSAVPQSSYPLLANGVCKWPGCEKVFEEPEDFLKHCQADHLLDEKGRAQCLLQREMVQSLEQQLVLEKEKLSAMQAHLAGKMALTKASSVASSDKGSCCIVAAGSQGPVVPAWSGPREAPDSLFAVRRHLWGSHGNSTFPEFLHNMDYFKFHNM

T1 sequence (Q9BZS1 182-431, stated change not applied): as the sequence (Q9BZS1 182-431 C204S) above, with S23C counted along it

B1: A' (AT) (dsDNA)
DNA 1: CAAGATAAACAAGACAACATAAACAA
DNA 2: TTGTTTATGTTGTCTTGTTTATCTTG
With B1 the binding signal [1] was < 0.5 fold versus A' (GT).

B2: A'' (A2-A2) (dsDNA)
DNA 1: CAAGACAAATAAGACAACACAAATAA
DNA 2: TTATTTGTGTTGTCTTATTTGTCTTG
B2: no binding [2]; no binding [3].

B3: A (A1-A2) (dsDNA)
DNA 1: CAAGGTAAACAAGACAACACAAATAA
DNA 2: TTATTTGTGTTGTCTTGTTTACCTTG
B3: binds [4]; no binding [5]; no binding [3].

B4: A' (35 bp), 20-bp spacing (dsDNA)
DNA 1: CAAGGTAAACAAGACAACACGATTGTAAACAAGTC
DNA 2: GACTTGTTTACAATCGTGTTGTCTTGTTTACCTTG
Work on B4 yielded a binding signal [6] of roughly 3 fold versus 14-bp spacing.

B5: A' (A1-A1) (dsDNA)
DNA 1: CAAGGTAAACAAGACAACGTAAACAA
DNA 2: TTGTTTACGTTGTCTTGTTTACCTTG
In the case of B5, the binding signal [7] is reported as greater than 2 fold versus A probe, the binding result [8] is reported as “binds” and the binding result [9] is reported as “no binding”. B5: no binding [3]; no binding [10]; no binding [11].

B6: A' (25 bp), 10-bp spacing (dsDNA)
DNA 1: CAAGGTAAACAAGAGTAAACAAGTC
DNA 2: GACTTGTTTACTCTTGTTTACCTTG
In the case of B6, the binding signal [6] is reported as roughly 3 fold versus 14-bp spacing.

B7: A' (GC) (dsDNA)
DNA 1: CAAGGCAAACAAGACAACGCAAACAA
DNA 2: TTGTTTGCGTTGTCTTGTTTGCCTTG
B7: no binding [2].
